# Source: the supplement of paper PMC7877785
# ± gives the uncertainty stated by the source.
# Assay: self-splicing fitness, log relative to wild type (ln ratio); higher = more splicing; Tetrahymena group I intron in knt gene, E. coli kanamycin selection, DiMSum; sequences stand for … in CUCUCU…GGAGGGAAAAGUUAUCAGGCAUGCACCUGGUAGCUAGUCUUUAAACCAAUAGAUUGCAUCGGUUUAAAAGGCAAGACCGUCAAAUUGCGGGAAAGGGGUCAACAGCCGUUCAGUACCAAGUCUCAGGGGAAACUUUGAGAUGGCCUUGCAAAGGGUAUGGUAAUAAGCUGACGGACAUGGUCCUAACCACGCAGCCAAGUCCUAAGUCAACAGAUCUUCUGUUGAUAUGGAUGCAGUUCACAGACUAAAUGUCGGUCGGGGAAGAUGUAUUCUUCUCAUAAGAUAUAGUCGGACCUCUCCUUAAUGGGAGCUAGCGGAUGAAGUGAUGCAACACUGGAGCCGCUGGGAACUAAUUUGUAUGCGAAAGUAUAUUGAUUAGUUUUGGAGUACUCGUGGUCG
# How it was run: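 DiMSum derived fitness as the error-weighted combination of fold changes across replicates, kanamycin versus no kanamycin, normalised to wild type. E. coli BL21(DE3) held the library, which randomised all eight P1ex-region intron nucleotides within the knt kanamycin-resistance gene on pET-22b(+). Six replicate transformations grew overnight at 37°C or 30°C on LB agar with or without 25 μg/mL kanamycin, also containing 100 μg/mL carbenicillin, 50 μM IPTG and 0.2% rhamnose, and pooled colonies were amplicon-sequenced on an Illumina HiSeq 2500.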
Sequence,self-splicing fitness (ln) (30 °C),self-splicing fitness (ln) (37 °C)
CCAAAGCAAUAUUACGGUAA,-3.35 ± 0.29,-2.91 ± 0.23
CCAAAGCAAUAUUACGGUCA,-3.54 ± 0.35,-1.78 ± 0.25
CCAAAGCAAUAUUACGUCGA,-3.66 ± 0.15,-2.92 ± 0.18
CCAAAGCAAUAUUACGUGGC,-1.62 ± 0.098,-2.29 ± 0.21
CCAAAGCAAUAUUACGUUCC,-3.37 ± 0.24,-2.93 ± 0.32
CCACAGCAAUAUUACGAACC,-3.86 ± 0.32,-2.46 ± 0.35
CCACAGCAAUAUUACGACAU,-3.702 ± 0.019,-2.84 ± 0.037
CCACAGCAAUAUUACGACCA,-3.99 ± 0.36,-1.28 ± 0.2
CCACAGCAAUAUUACGACCU,-3.94 ± 0.3,-2.82 ± 0.18
CCACAGCAAUAUUACGACGU,-3.18 ± 0.18,-2.52 ± 0.15
CCACAGCAAUAUUACGAGCC,-3.22 ± 0.42,-2.3 ± 0.31
CCACAGCAAUAUUACGAGGC,-3.21 ± 0.14,-2.37 ± 0.21
CCACAGCAAUAUUACGAGUA,-3.68 ± 0.2,-2.31 ± 0.19
CCACAGCAAUAUUACGCCCA,-2.81 ± 0.14,-2.36 ± 0.16
CCACAGCAAUAUUACGCGCG,-1.02 ± 0.042,-0.161 ± 0.056
CCACAGCAAUAUUACGCUGU,-4.34 ± 0.18,-3.31 ± 0.27
CCACAGCAAUAUUACGGAAU,-3.23 ± 0.17,-2.21 ± 0.18
CCACAGCAAUAUUACGGACC,-4.45 ± 0.31,-1.54 ± 0.22
CCACAGCAAUAUUACGGAGC,-3.58 ± 0.14,-2.99 ± 0.19
CCACAGCAAUAUUACGGGCA,-3.53 ± 0.15,-2.92 ± 0.15
CCACAGCAAUAUUACGGGCG,-0.605 ± 0.065,0.193 ± 0.087
CCACAGCAAUAUUACGGUUA,-3.14 ± 0.15,-2.7 ± 0.16
CCACAGCAAUAUUACGUAGU,-3.22 ± 0.14,-2.94 ± 0.19
CCACAGCAAUAUUACGUCAG,-0.817 ± 0.057,-0.131 ± 0.071

Sequence,self-splicing fitness (ln) (30 °C),self-splicing fitness (ln) (37 °C)
CCAGAGCAAUAUUACGAAAA,-2.94 ± 0.32,-1.54 ± 0.35
CCAGAGCAAUAUUACGACGA,-2.94 ± 0.25,-2.34 ± 0.3
CCAGAGCAAUAUUACGAGUC,-2 ± 0.19,-1.69 ± 0.28
CCAGAGCAAUAUUACGAUAU,-2.51 ± 0.23,-3.19 ± 0.37
CCAGAGCAAUAUUACGAUGG,-4.18 ± 0.34,-2.04 ± 0.27
CCAGAGCAAUAUUACGAUUC,-4.06 ± 0.22,-2.67 ± 0.21
CCAGAGCAAUAUUACGCAUA,-3.74 ± 0.23,-2.48 ± 0.24
CCAGAGCAAUAUUACGCCGC,–,-0.773 ± 0.45
CCAGAGCAAUAUUACGCGCU,-2.97 ± 0.24,-1.89 ± 0.34
CCAGAGCAAUAUUACGCUUU,-3.36 ± 0.27,-1.71 ± 0.17
CCAGAGCAAUAUUACGGAAA,-3.62 ± 0.32,-2.19 ± 0.27
CCAGAGCAAUAUUACGGAGU,-3.32 ± 0.21,-3.21 ± 0.28
CCAGAGCAAUAUUACGGGUU,-3.1 ± 0.23,-2.63 ± 0.26
CCAGAGCAAUAUUACGUCUC,-3.23 ± 0.15,-2.78 ± 0.23
CCAGAGCAAUAUUACGUUCC,-4.16 ± 0.31,-2.6 ± 0.44
CCAGAGCAAUAUUACGUUUG,-2.32 ± 0.11,-2.25 ± 0.17
CCAUAGCAAUAUUACGAACA,-3.77 ± 0.22,-2.41 ± 0.25
CCAUAGCAAUAUUACGACAG,-1.16 ± 0.092,-0.413 ± 0.1
CCAUAGCAAUAUUACGAGUU,-3.76 ± 0.36,-2.1 ± 0.31
CCAUAGCAAUAUUACGAUUG,-1.17 ± 0.07,-0.642 ± 0.083
CCAUAGCAAUAUUACGCAAC,-2.54 ± 0.28,–
CCAUAGCAAUAUUACGCAGG,-3.98 ± 0.28,-3.18 ± 0.35
CCAUAGCAAUAUUACGCCCA,-1.9 ± 0.34,-1.86 ± 0.35
CCAUAGCAAUAUUACGCCGG,-2.5 ± 0.21,-3.15 ± 0.47
